Laboratory results: PMC5374107

Molecular target: Recombinant His-tagged EPCR (human) (UniProt Q9UNN8)
Experiment: SPR; Biacore T-200; biotinylated EPCR immobilized to 650 RU on a CAP chip (Biotin Capture Kit); head structures injected, two-fold dilutions 500 nM to 4 nM, 30 µL/min, 240 s association, 720 s dissociation; 10 mM HEPES pH 7.4, 300 mM NaCl, 0.05% Tween-20, 2 mg/ml ssDNA; one-site kinetic model

Chain of Recombinant His-tagged EPCR (human) (Q9UNN8 18-238): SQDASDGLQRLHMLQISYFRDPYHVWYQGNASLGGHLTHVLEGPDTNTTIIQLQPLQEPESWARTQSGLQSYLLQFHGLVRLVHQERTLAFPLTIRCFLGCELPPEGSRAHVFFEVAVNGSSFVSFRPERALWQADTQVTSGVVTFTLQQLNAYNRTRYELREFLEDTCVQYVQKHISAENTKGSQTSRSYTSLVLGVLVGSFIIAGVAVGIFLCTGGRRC

| Substance | Kd [nM] | koff [s⁻¹] | kon [M⁻¹ s⁻¹] |
| --- | --- | --- | --- |
| PFD1235w head structure (CIDRα1.6-DBLβ3) (domain or fragment) | 17.1 | 0.000581 | 34000 |

Molecular target: ICAM-1D1D5-Fc (human)
Experiment: SPR; Biacore T-200; ICAM-1D1D5 Fc immobilized to 2100 RU on a CM5 chip pre-coupled to Protein A; wild type or mutant PF11_0521 DBLβ3_D4 injected, two-fold dilutions 4 nM to 500 nM, 40 µL/min, 240 s association, 660 s dissociation; 10 mM HEPES pH 8.0, 300 mM NaCl, 0.05% Tween-20; global fit to a one-site kinetic model

| Substance | Kd [nM] | koff [s⁻¹] | kon [M⁻¹ s⁻¹] |
| --- | --- | --- | --- |
| PF11_0521 DBLβ3_D4 G1083A (domain or fragment) | 3520 | 0.0701 | 19900 |
| PF11_0521 DBLβ3_D4 G1084A (domain or fragment) | 4060 | 0.0394 | 9700 |
| PF11_0521 DBLβ3_D4 G1111A (domain or fragment) | 34.1 | 0.000639 | 18700 |
| PF11_0521 DBLβ3_D4 H1121A (domain or fragment) | 962 | 0.00592 | 6100 |
| PF11_0521 DBLβ3_D4 I1078S (domain or fragment) | 1250 | 0.0235 | 18800 |
| PF11_0521 DBLβ3_D4 K1124A (domain or fragment) | 9.75 | 0.000154 | 15900 |
| PF11_0521 DBLβ3_D4 M1071S (domain or fragment) | 24.6 | 0.000451 | 18400 |
| PF11_0521 DBLβ3_D4 N1082A (domain or fragment) | 1320 | 0.0244 | 18400 |
| PF11_0521 DBLβ3_D4 N1089A (domain or fragment) | 6.3 | 0.000114 | 17900 |
| PF11_0521 DBLβ3_D4 P1116A (domain or fragment) | 1690 | 0.00237 | 1300 |
| PF11_0521 DBLβ3_D4 R1077A (domain or fragment) | 34.7 | 0.000382 | 11000 |
| PF11_0521 DBLβ3_D4 T1120A (domain or fragment) | 21.1 | 0.000298 | 14100 |
| PF11_0521 DBLβ3_D4 domain, wild type (domain or fragment) | 3.2 | 6.2e-05 | 19300 |

Molecular target: ICAM-1D1D5-Fc (human)
Experiment: SPR; Biacore T-200; ICAM-1D1D5 Fc immobilized to 1,400 RU on a CM5 chip pre-coupled to Protein A; head structures injected, two-fold dilutions 4 nM to 500 nM, 40 µL/min, 240 s association, 600 s dissociation; 10 mM HEPES pH 8.0, 300 mM NaCl, 0.05% Tween-20; one-site kinetic model

| Substance | Kd [nM] | koff [s⁻¹] | kon [M⁻¹ s⁻¹] |
| --- | --- | --- | --- |
| PFD1235w head structure (CIDRα1.6-DBLβ3) (domain or fragment) | 18 | 0.000108 | 6000 |
